“Also recorded” adds a separate entry of the source.
Columns and labels:
[1] = tested on: LCS; test: ITC of GOLPH3 mutants with LCS peptide; type: binding; conditions: 25 °C, pH 8.0, relative to non-mutated GOLPH3
Method: (§1) Supplemental Material for Theodoropoulou, Nasrallah, et al 2026
(§2) Isothermal titration calorimetry
(§3) Isothermal titration calorimetry (ITC) experiments were performed on a MicroCal PEAQ-ITC (Malvern Panalytical), with GOLPH3 variants being in a buffer containing 250 mM NaCl, 50 mM Tris pH 8.0 and 1 mM TCEP. LCS peptides were synthesised and delivered as lyophilised powder (Genscript). The peptides were dissolved in the protein buffer and their concentrations were calculated based upon their absorbance at 280 nm and their corresponding molar extinction coefficient. Experiments consisted of titrations of a single 0.4 µL injection followed […]
(§4) GOLPH3 proteins at a 100 μM concentration. Experiments were performed at 25 °C in triplicate (n = 3), with injection duration of 4 s, injection spacing of 150 s, stir speed of 750 rpm, and reference power of 7 μcal/s. Data were processed and plotted using MicroCal PEAQ‐ITC Analysis Software and fitted to a one‐site binding model.
(§5) Circular Dichroism Spectroscopy
(§6) Circular Dichroism Spectra of GOLPH3 proteins (at 10 μM in 100 mM NaCl, 50 mM Tris pH 7.4 and 1 mM TCEP) were collected with a Chirascan V100 (AppliedPhotophysics), using a 1 mm path length cuvette, at 20 °C, in the 200-260 nm range. Thermal denaturation experiments […]
(§7) every 1 °C, with a temperature ramp speed of 1 °C/min and an equilibration time of […]
(§8) Table S2: Fits of CD spectra to fractions of secondary structure for Golph3 WT and various mutants of it, carried out with the BestSel server

[2] = CD secondary structure of GOLPH3 proteins (BestSel fits); type: physicochemical, human; conditions: 10 μM, 100 mM NaCl, 50 mM Tris pH 7.4, 1 mM TCEP, 20 °C
Method: as §1
Isothermal titration calorimetry […]
as §5, §6, §7, §8

[3] = tested on: GOLPH3-KO HeLa cells; test: 3H-palmitate metabolic labeling of GOLPH3 mutants; type: cell-based, human; conditions: 3H-palmitic acid 3 h, autoradiography after immunoprecipitation
Method: To detect palmitoylation, HeLa WT or GOLPH3-KO cells were transfected or not with different GOLPH3 constructs, incubated for 3 h in IM (Glasgow minimal essential medium buffered with 10 mM Hepes, pH 7.4) with 200 mCi/ml ^3H palmitic acid (9,10-^3H(N)) (American Radiolabeled Chemicals, Inc.). The cells were washed and directly lysed for immunoprecipitation with the anti-GOLPH3 rabbit antibody. […] After SDS-PAGE, the gel was incubated in a fixative solution (25% isopropanol, 65% H2O, 10% acetic acid), followed by a 30-min incubation with signal enhancer Amplify NAMP100 (GE Healthcare). […] Quantification of radioactive experiments was quantified using specific screens by autoradiography. The images shown for ^3H-palmitate labeling were however obtained using fluorography (indirect detection of radioactive emission by stimulated light emission from a fluorophore (Amplify) on film).

[4] = tested on: HeLa cells; test: Immunofluorescence of GOLPH3 Golgi localization; type: cell-based, human; conditions: quantitative immunofluorescence
Method: as §1
(Sigma, E4382), 5 mL of 1% Phloxine B (Fluka, 28550), 360 mL of 95% ethanol, and 2 mL of glacial acetic acid. Slides were then washed in distilled water, dehydrated, cleared in xylene, and mounted using Eukitt mounting medium (Sigma-Aldrich).
For Alcian Blue staining, sections were deparaffinized, rehydrated, and incubated for 25 minutes at room temperature in 1% Alcian Blue (Sigma-Aldrich, A5268) dissolved in 3% acetic acid (pH 2.5). The solution was filtered prior to use and prepared by dissolving 5 g of Alcian Blue in 500 mL of 3% glacial acetic acid. After staining, slides were washed in running tap water for 5 minutes and briefly rinsed in distilled water. Nuclei were counterstained with 0.1% nuclear fast red (Vector Laboratories, H-3403) for 5 minutes, followed by rinsing, dehydration, clearing, and mounting with Eukitt. Acidic mucopolysaccharides and mucins […]
Immunofluorescence and confocal microscopy
HeLa GOLPH3-KO cells transfected with the different GOLPH3 constructs were plated at approximately 50% confluency post-transfection. Cells were washed with PBS, fixed in 4% paraformaldehyde (PFA) for 20 minutes, washed with PBS, quenched with 50 mM NH4Cl for 10 minutes, and washed again with PBS. Cells were permeabilized with 0.05% saponin in PBS for 5 minutes. Subsequently, cells were washed and blocked with 3% BSA and 0.05% saponin in PBS for 30 minutes. Primary antibodies (anti-GOLPH3 and anti-GM130) and secondary antibodies were diluted in the same buffer. After blocking, coverslips were washed and incubated with primary antibodies overnight at 4 °C, washed in PBS, and incubated for 45 minutes with secondary antibodies. Cells were then washed and stained with Hoechst for nuclear visualization. Finally, coverslips were mounted in Prolong Glass Antifade Mountant.
Images were acquired using a Zeiss LSM 980 Inverted microscope with a 63X objective, a pinhole size of 1 AU and at least 2 line-averaging or alternatively using Oympus Evident FV4000. Super-resolution images were taken using Zeiss LSM980 with Airyscan2 module, with 63×oil-immersion objectives. Images were processed using Fiji (ImageJ). Cis-to-trans Golgi linescans were recorded using the “Color Profiler” plugin (Color_Profiler. jar, https://imagej.nih.gov/ij/plugins/color -profiler.html) in Fiji software.
Forty-eight hours after transfection, cells were harvested by trypsinization, fixed 10 minutes in 4% PFA/PBS, washed, and resuspended in PBS containing 1% BSA.

[5] = tested on: GOLPH3-KO HeLa cells; test: Targeted LC-MS/MS of glycosphingolipids in GOLPH3-KO HeLa expressing GOLPH3 mutants; type: cell-based, human
[6] = CD thermal denaturation of GOLPH3 proteins; type: physicochemical, human; conditions: CD at 207 nm, 20 to 95 °C at 1 °C/min, 10 μM protein, 100 mM NaCl, 50 mM Tris pH 7.4, 1 mM TCEP
Method: as §1, §2, §3, §4, §5, §6, §7, §8

Row | Molecule | binding of GOLPH3 mutants to LCS [1] | % alpha [2] [%] | % beta parallel [2] [%] | % beta-antiparallel [2] [%] | % others [2] [%] | % turn [2] [%] | palmitoylation of GOLPH3 mutants [3] | Golgi localization of GOLPH3 mutants [4] | promotion of lipid glycosylation [5] | Tm / melting temperature [6] [°C]
1 | D247A: GOLPH3 mutant D247A; recombinant in biophysics, transfected construct in cells (protein, UniProt Q9H4A6 1-298, looked up, variant D247A) Golgi phosphoprotein 3: MTSLTQRSSGLVQRRTEASRNAADKERAAGGGAGSSEDDAQSRRDEQDDDDKGDSKETRLTLMEEVLLLGLKDREGYTSFWNDCISSGLRGCMLIELALRGRLQLEACGMRRKSLLTRKVICKSDAPTGDVLLDEALKHVKETQPPETVQNWIELLSGETWNPLKLHYQLRNVRERLAKNLVEKGVLTTEKQNFLLFDMTTHPLTNNNIKQRLIKKVQEAVLDKWVNDPHRMDRRLLALIYLAHASAVLENAFAPLLDEQYDLATKRVRQLLDLDPEVECLKANTNEVLWAVVAAFTK | reduced binding | 36 | 0 | 8 | 44 | 12 |  |  |  | 
2 | C108A: GOLPH3 S-acylation mutant C108A, transfected construct (protein, UniProt Q9H4A6 1-298, looked up, variant C108A) Golgi phosphoprotein 3: MTSLTQRSSGLVQRRTEASRNAADKERAAGGGAGSSEDDAQSRRDEQDDDDKGDSKETRLTLMEEVLLLGLKDREGYTSFWNDCISSGLRGCMLIELALRGRLQLEAAGMRRKSLLTRKVICKSDAPTGDVLLDEALKHVKETQPPETVQNWIELLSGETWNPLKLHYQLRNVRERLAKNLVEKGVLTTEKQNFLLFDMTTHPLTNNNIKQRLIKKVQEAVLDKWVNDPHRMDRRLLALIYLAHASDVLENAFAPLLDEQYDLATKRVRQLLDLDPEVECLKANTNEVLWAVVAAFTK |  |  |  |  |  |  | modest effect | increased Golgi localization |  | 
3 | D247A/D258A/D262A: GOLPH3 triple mutant D247A/D258A/D262A; recombinant in biophysics, transfected in cells (protein, UniProt Q9H4A6 1-298, looked up, variant D247A D258A D262A) Golgi phosphoprotein 3: MTSLTQRSSGLVQRRTEASRNAADKERAAGGGAGSSEDDAQSRRDEQDDDDKGDSKETRLTLMEEVLLLGLKDREGYTSFWNDCISSGLRGCMLIELALRGRLQLEACGMRRKSLLTRKVICKSDAPTGDVLLDEALKHVKETQPPETVQNWIELLSGETWNPLKLHYQLRNVRERLAKNLVEKGVLTTEKQNFLLFDMTTHPLTNNNIKQRLIKKVQEAVLDKWVNDPHRMDRRLLALIYLAHASAVLENAFAPLLAEQYALATKRVRQLLDLDPEVECLKANTNEVLWAVVAAFTK |  | 40 | 0 | 0 | 47 | 13 |  |  |  | 
4 | GOLPH3-C108A/C122A: GOLPH3 double S-acylation mutant C108A/C122A, transfected construct (protein, UniProt Q9H4A6 1-298, looked up, variant C108A C122A) Golgi phosphoprotein 3: MTSLTQRSSGLVQRRTEASRNAADKERAAGGGAGSSEDDAQSRRDEQDDDDKGDSKETRLTLMEEVLLLGLKDREGYTSFWNDCISSGLRGCMLIELALRGRLQLEAAGMRRKSLLTRKVIAKSDAPTGDVLLDEALKHVKETQPPETVQNWIELLSGETWNPLKLHYQLRNVRERLAKNLVEKGVLTTEKQNFLLFDMTTHPLTNNNIKQRLIKKVQEAVLDKWVNDPHRMDRRLLALIYLAHASDVLENAFAPLLDEQYDLATKRVRQLLDLDPEVECLKANTNEVLWAVVAAFTK |  |  |  |  |  |  |  |  | displays active behavior | 
5 | R90L: GOLPH3 mutant defective in PtdIns(4)P binding (protein, UniProt Q9H4A6 1-298, looked up, variant R90L) Golgi phosphoprotein 3: MTSLTQRSSGLVQRRTEASRNAADKERAAGGGAGSSEDDAQSRRDEQDDDDKGDSKETRLTLMEEVLLLGLKDREGYTSFWNDCISSGLLGCMLIELALRGRLQLEACGMRRKSLLTRKVICKSDAPTGDVLLDEALKHVKETQPPETVQNWIELLSGETWNPLKLHYQLRNVRERLAKNLVEKGVLTTEKQNFLLFDMTTHPLTNNNIKQRLIKKVQEAVLDKWVNDPHRMDRRLLALIYLAHASDVLENAFAPLLDEQYDLATKRVRQLLDLDPEVECLKANTNEVLWAVVAAFTK |  |  |  |  |  |  |  | largely abolished Golgi localization |  | 
6 | C122A: GOLPH3 S-acylation mutant C122A, transfected construct (protein, UniProt Q9H4A6 1-298, looked up, variant C122A) Golgi phosphoprotein 3: MTSLTQRSSGLVQRRTEASRNAADKERAAGGGAGSSEDDAQSRRDEQDDDDKGDSKETRLTLMEEVLLLGLKDREGYTSFWNDCISSGLRGCMLIELALRGRLQLEACGMRRKSLLTRKVIAKSDAPTGDVLLDEALKHVKETQPPETVQNWIELLSGETWNPLKLHYQLRNVRERLAKNLVEKGVLTTEKQNFLLFDMTTHPLTNNNIKQRLIKKVQEAVLDKWVNDPHRMDRRLLALIYLAHASDVLENAFAPLLDEQYDLATKRVRQLLDLDPEVECLKANTNEVLWAVVAAFTK |  |  |  |  |  |  | modest effect | increased Golgi localization |  | 
7 | D247R/D258R/D262R: recombinant GOLPH3 triple mutant D247R/D258R/D262R (protein, UniProt Q9H4A6 1-298, looked up, variant D247R D258R D262R) Golgi phosphoprotein 3: MTSLTQRSSGLVQRRTEASRNAADKERAAGGGAGSSEDDAQSRRDEQDDDDKGDSKETRLTLMEEVLLLGLKDREGYTSFWNDCISSGLRGCMLIELALRGRLQLEACGMRRKSLLTRKVICKSDAPTGDVLLDEALKHVKETQPPETVQNWIELLSGETWNPLKLHYQLRNVRERLAKNLVEKGVLTTEKQNFLLFDMTTHPLTNNNIKQRLIKKVQEAVLDKWVNDPHRMDRRLLALIYLAHASRVLENAFAPLLREQYRLATKRVRQLLDLDPEVECLKANTNEVLWAVVAAFTK | weaken or abrogate binding | 38 | 0 | 7 | 40 | 15 |  |  |  | 57
8 | D247R: recombinant GOLPH3 mutant D247R (protein, UniProt Q9H4A6 1-298, looked up, variant D247R) Golgi phosphoprotein 3: MTSLTQRSSGLVQRRTEASRNAADKERAAGGGAGSSEDDAQSRRDEQDDDDKGDSKETRLTLMEEVLLLGLKDREGYTSFWNDCISSGLRGCMLIELALRGRLQLEACGMRRKSLLTRKVICKSDAPTGDVLLDEALKHVKETQPPETVQNWIELLSGETWNPLKLHYQLRNVRERLAKNLVEKGVLTTEKQNFLLFDMTTHPLTNNNIKQRLIKKVQEAVLDKWVNDPHRMDRRLLALIYLAHASRVLENAFAPLLDEQYDLATKRVRQLLDLDPEVECLKANTNEVLWAVVAAFTK | reduced binding; also recorded: weaken or abrogate binding | 38 | 0 | 0 | 52 | 10 |  |  |  | 57

Reference: paper PMC13408441, “Molecular regulation and physiological role of GOLPH3-mediated Golgi retention” (Nature Communications, 2026)
